Laboratory results: PMC11995724

Target: MiaA C273A (Shigella flexneri, UniProt P59197 1-316, C273A)
Test: EMSA (2% agarose); 10 mM Mg2+; 100 uM 10-F05; binding only slightly decreased, largely unaffected
Conditions: protein: recombinant; tags: N-terminal His-tag (pET28a); label: none (GelRed stain); predicted two hairpin loops

## GUUCAAUUGGUAGAGCACCGGUCUCCAAAACCGG (structured_RNA) [tRNATrp_34-base]
  binding result: binds
